Read-outs that look alike come from different tables or passages of the source.
B1: SKM ultralong CDR3 chimeric bovine-human IgG1 antibody (antibody)
VH: QVQLRESGPSLVKPSQTLSLTCTASGFSLSDKAVGWVRQAPGKALEWLGSIDTGGNTGYNPGLKSRLSITKDNSKSQVSLSVSSVTTEDSATYYCTTVHQETLRSCPDGYIDNSGCTADWGCAALDCWRRRFGYHSTDPSHYTGATYIYTYSLHIDAWGQGLLVTVSS
VL: QAVLNQPSSVSGSLGQRVSITCSGSSSNVGNGYVSWYQLIPGSAPRTLIYGDTSRASGVPDRFSGSRSGNTATLTISSLQAEDEADYFCASAEDSSSNAVFGSGTTLTVL
B2: SKD ultralong CDR3 chimeric bovine-human IgG1 antibody (antibody)
VH: QVQLRESGPSLVKPSQTLSLTCTASGFSLSDKAVGWVRQAPGKALEWLGSIDTGGNTGYNPGLKSRLSITKDNSKSQVSLSVSSVTTEDSATYYCTTVHQRTSEKRSCPGGSSRRYPSGASCDVSGGACACYVSNCRGVLCPTLNEIVAYTYEWHVDAWGQGLLVTVSS
VL: QAVLNQPSSVSGSLGQRVSITCSGSSSNVGNGYVSWYQLIPGSAPRTLIYGDTSRASGVPDRFSGSRSGNTATLTISSLQAEDEADYFCASAEDSSSNAVFGSGTTLTVL
B3: R4C1 ultralong CDR3 chimeric bovine-human IgG1 antibody (antibody)
VH: QVQLRESGPSLVKPSQTLSLTCTASGFSLSDKAVGWVRQAPGKPLEWLGSIDTAENTGYNPGLKSRLSITKDNSKSQVSLSVSSVTTEDSATYYCATVHQKTRKEKNCPDGYIYSSNTASGYDCGVWICRRVGSAFCSRTGDYTSPSEFDIYEFYVEGWGQGLLVTVSS
VL: QAVLNQPSSVSGSLGQRVSITCSGSSSNVGNGYVSWYQLIPGSAPRTLIYGDTSRASGVPDRFSGSRSGNTATLTISSLQAEDEADYFCASAEDSSSNAVFGSGTTLTVL
B4: purified R2G3 CDR3-knob (after enterokinase cleavage from trxA) (peptide)
peptide: EGDKTCPDGYEHTCGCIGGCGCKRSACIGALCCQASLGGWLSDGETYTYEF
modifications: not checked
B5: R2D9 CDR3-knob (peptide)
peptide: ITHKTCPNGYNWFDRCCSWDGTCGDGCCSNRAWPSGNGRADSSIGETYGYEF
modifications: not checked

Experiments:
[1] = target: T1, SARS CoV-2 spike trimer protein from the parental Wuhan-Hu-1 isolate (extracellular domain, furin-cl (SARS-CoV-2 (Wuhan-Hu-1))); conditions: remark: other sources report otherwise
[2] = target: T1, SARS CoV-2 spike trimer protein from …; experiment: ELISA, spike protein coated, IgG detected with anti-human Fc-HRP; conditions: remark: other sources report otherwise
[3] = target: recombinant stabilized spike protein derived from the beta strain (formerly described as the South A (SARS-CoV-2 (B.1.351)), P0DTC2); conditions: remark: other sources report otherwise
[4] = target: T1, SARS CoV-2 spike trimer protein from …; conditions: remark: other sources report otherwise; remark: listed apart in the source
[5] = substrate: S protein of a SARS-CoV-2 delta lineage virus on pseudotyped virus (SARS-CoV-2 (delta lineage)); experiment: cell-based or functional assay

Row | Binder | EC50 (read off the curve) [1] [nM] | EC50 [2] [nM] | EC50 (read off the curve) [3] [nM] | EC50 (read off the curve) [4] [nM] | pseudovirus neutralization, ng/mL (quantity not given) [5] [ng/mL]
1 | B1 | 0.2 | 0.19 |  |  | 
2 | B2 |  | 0.16 |  |  | 
3 | B3 | 0.3 | 0.2 | 0.3 | 0.03 | 
4 | B4 |  |  |  |  | 302
5 | B5 |  |  |  |  | 66.8

— patent publication US20240262893A1
